Reference: patent publication US20240084003A1 (SIMCERE ZAIMING PHARMACEUTICAL, published 2024)
Read-outs that look alike come from different tables or passages of the source.

T1: murine CD22 protein (ACROBiosystems, SI2-M52Ha) (murine, UniProt P35329 22-708)
T1 construct: extracellular domain; also called murine CD22-ECD; murine CD22-ECD-His
T1 sequence (looked up): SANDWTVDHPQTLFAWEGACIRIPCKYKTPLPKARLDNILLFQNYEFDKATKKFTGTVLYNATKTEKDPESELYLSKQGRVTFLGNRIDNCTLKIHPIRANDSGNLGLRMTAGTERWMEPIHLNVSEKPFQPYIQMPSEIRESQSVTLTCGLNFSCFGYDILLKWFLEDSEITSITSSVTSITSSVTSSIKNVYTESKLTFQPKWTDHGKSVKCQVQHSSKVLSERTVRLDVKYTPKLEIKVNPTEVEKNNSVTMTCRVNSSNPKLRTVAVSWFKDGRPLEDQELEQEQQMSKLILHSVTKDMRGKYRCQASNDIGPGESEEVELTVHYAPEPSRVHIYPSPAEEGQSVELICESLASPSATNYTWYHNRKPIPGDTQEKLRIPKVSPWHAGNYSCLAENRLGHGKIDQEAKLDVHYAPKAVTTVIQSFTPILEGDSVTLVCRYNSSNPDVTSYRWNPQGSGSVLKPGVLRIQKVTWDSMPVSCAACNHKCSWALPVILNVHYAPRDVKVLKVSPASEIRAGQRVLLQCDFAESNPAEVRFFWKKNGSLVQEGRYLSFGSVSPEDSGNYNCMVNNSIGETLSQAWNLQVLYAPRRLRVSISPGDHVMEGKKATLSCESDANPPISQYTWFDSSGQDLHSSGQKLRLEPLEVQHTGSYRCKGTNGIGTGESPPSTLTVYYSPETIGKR

T2: human CD22, endogenous on Raji cells (human, UniProt P20273 20-847)
T2 construct: whole, on cells; Endogenous protein of the Raji cell line
T2 sequence (looked up): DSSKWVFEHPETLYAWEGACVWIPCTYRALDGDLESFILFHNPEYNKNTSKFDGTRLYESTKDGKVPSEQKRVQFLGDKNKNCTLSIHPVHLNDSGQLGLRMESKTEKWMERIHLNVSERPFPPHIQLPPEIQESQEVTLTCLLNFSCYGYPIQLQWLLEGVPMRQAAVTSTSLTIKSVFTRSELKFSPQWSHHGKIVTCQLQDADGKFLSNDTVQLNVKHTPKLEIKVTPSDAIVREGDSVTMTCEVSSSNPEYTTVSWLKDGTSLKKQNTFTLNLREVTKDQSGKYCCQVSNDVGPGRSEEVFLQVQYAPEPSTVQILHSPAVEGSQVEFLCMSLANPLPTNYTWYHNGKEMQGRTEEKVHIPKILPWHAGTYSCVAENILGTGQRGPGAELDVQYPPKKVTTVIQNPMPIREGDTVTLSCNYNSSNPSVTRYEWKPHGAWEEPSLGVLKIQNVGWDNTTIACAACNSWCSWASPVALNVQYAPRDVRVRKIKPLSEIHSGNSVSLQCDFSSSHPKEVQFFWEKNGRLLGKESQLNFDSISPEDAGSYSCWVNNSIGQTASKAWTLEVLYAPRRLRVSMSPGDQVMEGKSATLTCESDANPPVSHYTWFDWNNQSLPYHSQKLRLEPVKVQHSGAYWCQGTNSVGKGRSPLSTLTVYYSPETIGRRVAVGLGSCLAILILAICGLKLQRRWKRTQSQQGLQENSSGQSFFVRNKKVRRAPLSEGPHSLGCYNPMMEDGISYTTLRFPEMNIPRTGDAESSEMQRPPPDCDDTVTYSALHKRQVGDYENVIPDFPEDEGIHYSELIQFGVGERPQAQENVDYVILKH

T3: human CD22, full length, on CHO-K1-human CD22 2C4 cells (human, UniProt P20273 20-847)
T3 construct: Full-length human CD22 (NCBI NP_001762.2) stably transfected into CHO-K1
T3 sequence: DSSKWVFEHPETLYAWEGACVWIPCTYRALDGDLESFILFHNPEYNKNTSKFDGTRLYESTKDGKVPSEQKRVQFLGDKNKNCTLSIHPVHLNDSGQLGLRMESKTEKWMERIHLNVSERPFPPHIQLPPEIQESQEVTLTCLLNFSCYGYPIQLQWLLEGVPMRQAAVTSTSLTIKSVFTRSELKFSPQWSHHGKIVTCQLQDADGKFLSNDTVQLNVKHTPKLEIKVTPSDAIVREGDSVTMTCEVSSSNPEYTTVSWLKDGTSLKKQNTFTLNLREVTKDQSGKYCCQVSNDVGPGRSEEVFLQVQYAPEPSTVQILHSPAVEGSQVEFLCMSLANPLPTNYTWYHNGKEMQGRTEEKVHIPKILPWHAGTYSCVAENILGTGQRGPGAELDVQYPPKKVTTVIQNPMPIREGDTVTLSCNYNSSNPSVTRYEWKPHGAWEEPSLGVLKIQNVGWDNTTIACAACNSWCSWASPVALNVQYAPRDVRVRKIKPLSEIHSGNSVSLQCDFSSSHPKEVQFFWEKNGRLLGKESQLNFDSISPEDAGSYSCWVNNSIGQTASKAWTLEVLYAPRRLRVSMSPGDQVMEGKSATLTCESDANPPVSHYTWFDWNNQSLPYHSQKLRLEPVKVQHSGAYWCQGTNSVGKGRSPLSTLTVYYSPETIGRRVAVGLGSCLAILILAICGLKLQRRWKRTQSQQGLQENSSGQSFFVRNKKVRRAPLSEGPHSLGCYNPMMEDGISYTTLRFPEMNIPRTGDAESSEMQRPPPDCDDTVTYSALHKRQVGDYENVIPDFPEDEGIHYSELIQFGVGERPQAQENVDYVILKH

B1: HA22-hIgG1 (antibody, V domains shown)
VH: EVQLVESGGGLVKPGGSLKLSCAASGFAFSIYDMSWVRQTPEKCLEWVAYISSGGGTTYYPDTVKGRFTISRDNAKNTLYLQMSSLKSEDTAMYYCARHSGYGTHWGVLFAYWGQGTLVTVSA
VL: DIQMTQTTSSLSASLGDRVTISCRASQDISNYLNWYQQKPDGTVKLLIYYTSILHSGVPSRFSGSGSGTDYSLTISNLEQEDFATYFCQQGNTLPWTFGCGTKLEIKR
B2: F2.70.2 human-murine chimeric antibody (antibody, human IgG1, lambda, V domains shown)
VH: EVQLVESGGGLVKPGGSLKLSCAASGFTFSDYGMNWFRQAPEKGLEWVAYISRGSHTIYYADTVKGRFTISRDNAKNTLFLQMTSLRSNDTAMYYCVRMAGYYAMDYWGQGTSVTVSS
VL: QLVLTQSSSASFSLGASAKLTCTLSSQHSSYIIEWYQQQPLKPPKYVMELKKDGSHSTGDGIPDRFSGSSSGADRYLSISNIQPEDEAIYICGVGDTIKEQFVYVFGGGTKVTVLG
notes: Chimeric, human IgG1 / lambda
B3: F2.104.10 human-murine chimeric antibody (antibody, human IgG1, lambda, V domains shown)
VH: EVQLVESGGGFVKPGGSLKLSCAASGFTFSDYGMNWFRQAPEKGLEWVAYISRGSHTIYYADTVKGRFTISRDNAENTLFLQMTSLRSNDTAMYYCVRMAGYYAMDYWGQGTSLTVSS
VL: QLVLTQSSSASFSLGASAKLTCTLSSQHSSYIIEWYQQQPLKPPKYVMEVKKDGSHSTGDGIPDRFSGSSSGADRYLSISNIQSEDEAIYICGVGDTIKEQFVYVFGGGTKVTVLG
notes: Chimeric, human IgG1 / lambda
B4: F2.180.16 human-murine chimeric antibody (antibody, human IgG1, lambda, V domains shown)
VH: EVKLVESGGGLVLPGGSLKISCAASGFTFSDYYMYWIRQTPDKRLEWVAYISNTGYSTFYPDSVKGRFTVSRDNAKNTLYLQMSRLQSEDTAMYYCARHGILYAMDYWGQGTSVTVSS
VL: QPVLTQSSSASFSLGASAKLTCTLSSQYSTYTIGWYQQQPLKPPKYVMELKHDGSRHTGDGIPDRFSGSSSGADRYLSISNIQPEDEATYICGVGDTIKEQFMYVFGGGTKVTVLG
notes: Chimeric, human IgG1 / lambda
B5: F2.121.9 human-murine chimeric antibody (antibody, human IgG1, lambda, V domains shown)
VH: EVQLVESGGGLVKPGGSLKLSCAASGFTFSDYVMSWIRQTPEKRLEWVATISDAGSYTFYPDNLKGRFTISRDNAKNNLYLQMNHLTSEDTAFYYCAIIYFGNYGGYWGQGTLVTVSV
VL: QAVVTQESALTTSPGGTVVLTCRSNTGAVTTSNYANWVQEKPDHLFTGLIGGTSNRAPGVPVRFSGSLIGDKAALTITGAQTEDDAMYFCALWYSTHWVFGGGTKLTVLG
notes: Chimeric, human IgG1 / lambda
B6: F2.173.9 human-murine chimeric antibody (antibody, human IgG1, lambda, V domains shown)
VH: EVQLVESGGDLVKPGESLKLSCEASGFTFSNYAMSWVRQTPDRRLEWVATISSIGSFTYYSDSVKGRFTISRDNVKSTLHLQMNNLKSGDTAIYFCARLGVYFDSWGQGTTLTVSS
VL: QLVLTQSSSASFSLGASAKLTCTLSSQHSTYTIEWYQQQPHKPPKFVMEIKKDGSHYTGDGIPDRFSGSSSGADRYLSISNIQPEDETIYICGVSDMIKDQFVYVFGGGTKVTVLG
notes: Chimeric, human IgG1 / lambda

What was measured:
[1] = target: T1, murine CD22 protein (ACROBiosystems, …); assay: ELISA, coated murine CD22, 0.01 nM Ab
Summary of the method: (§1)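 Coat 2 μg/mL CD22 in PBS, overnight 4° C; block PBS/2% BSA 2 h RT. Ab 2 h 37° C; HRP anti-species secondary 2 h 37° C. TMB 30 min RT, stop 1.0 N HCl.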

[2] = target: T2, human CD22, endogenous on Raji cells; assay: FACS, Raji cells
Source text: (§2) The required cells were scale-up cultured in a T-75 cell culture flask to the logarithmic growth phase. For the adherent cell CHO-K1, the medium was aspirated, the cells were washed 2 times with PBS buffer, and then digested with trypsin. After the digestion was terminated, the cells were washed 2 times with PBS buffer. For suspension cell Raji, the medium supernatant was directly centrifuged and discarded, and the cell pellet was washed 2 times with PBS. After counting the cells in the previous step, the cell pellet was resuspended with [PBS+2% (w/w) BSA] blocking solution to 2×10⁶ cells/ml, and added to a 96-well FACS reaction plate at 50 μl/well, and then the chimeric antibody test sample was added at 50 μl/well, and incubated on ice for 2 hours. The mixture was centrifuged and washed 3 times with PBS buffer, Alexa Flour 488-labeled secondary antibody (purchased from Invitrogen, catalog number: A-11013) was added at 50 μl/well, and incubated on ice for 1 hour. The obtained mixture was centrifuged and washed 5 times with PBS, and FACS (FACS Canto™, purchased from BD Company) was used for detection and result analysis. Data analysis was performed by software (CellQuest) to obtain the mean fluorescence density (MFI)of the cells. And then software (GraphPad Prism8) was used for analysis, data fitting, and EC50 value calculation. […] The same method was used to detect the binding of the chimeric antibodies to endogenous CD22-negative cell MoLT4 cells (purchased from ATCC, CRL-1582) and CHO-K1 cells.

[3] = target: T2, human CD22, endogenous on Raji cells; assay: FACS, Raji cells; remark: listed apart in the source
Summary of the method: (§3)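 Raji cells and CHO-K1 cells expressing human CD22 were blocked in PBS + 2% BSA at 2×10⁶ cells/ml and incubated with chimeric antibody for 2 h on ice. Bound antibody was detected with an Alexa Fluor 488 secondary for 1 h on ice and read by flow cytometry as MFI. EC50 came from curve fitting.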

[4] = target: T3, human CD22, full length, on …; assay: FACS, CHO-K1-human CD22 2C4 cells
Source text: as §2

[5] = target: T1, murine CD22 protein (ACROBiosystems, …); assay: ELISA, coated murine CD22, 0.001 nM Ab
Summary of the method: as §1

[6] = target: T3, human CD22, full length, on …; assay: FACS, CHO-K1-human CD22 2C4 cells; remark: listed apart in the source
Summary of the method: as §3

[7] = target: T1, murine CD22 protein (ACROBiosystems, …); assay: ELISA, coated murine CD22, 100 nM Ab
Summary of the method: as §1

[8] = target: T1, murine CD22 protein (ACROBiosystems, …); assay: ELISA, coated murine CD22, 0.0001 nM Ab
Summary of the method: as §1

[9] = target: T1, murine CD22 protein (ACROBiosystems, …); assay: ELISA, coated murine CD22, 0.1 nM Ab
Summary of the method: as §1

[10] = target: T1, murine CD22 protein (ACROBiosystems, …); assay: ELISA, coated murine CD22, 10 nM Ab
Summary of the method: as §1

[11] = target: T1, murine CD22 protein (ACROBiosystems, …); assay: ELISA, coated murine CD22, 0.00001 nM Ab
Summary of the method: as §1

Binder | OD450 [1] | EC50 [2] | Maximum mean fluorescence intensity [2] | EC50 [3] | Maximum mean fluorescence intensity [3] | EC50 [4] | Maximum mean fluorescence intensity [4] | OD450 [5] | EC50 [6] | Maximum mean fluorescence intensity [6] | OD450 [7] | OD450 [8] | OD450 [9] | OD450 [10] | OD450 [11]
B1 | 0.06 OD450 | 710 pM | 19700 MFI | 290 pM | 25000 MFI | 1100 pM | 43400 MFI | 0.05 OD450 | 810 pM | 32700 MFI | 0.1 OD450 | 0.06 OD450 | 0.06 OD450 | 0.07 OD450 | 0.06 OD450
B2 | 0.06 OD450 | 350 pM | 16600 MFI | – | – | 760 pM | 39000 MFI | 0.06 OD450 | – | – | 0.1 OD450 | 0.06 OD450 | 0.06 OD450 | 0.07 OD450 | 0.06 OD450
B3 | 0.07 OD450 | 400 pM | 16300 MFI | – | – | 880 pM | 40600 MFI | 0.06 OD450 | – | – | 0.07 OD450 | 0.06 OD450 | 0.06 OD450 | 0.07 OD450 | 0.05 OD450
B4 | 0.05 OD450 | 880 pM | 15700 MFI | – | – | 1630 pM | 34400 MFI | 0.05 OD450 | – | – | 0.05 OD450 | 0.07 OD450 | 0.05 OD450 | 0.06 OD450 | 0.06 OD450
B5 | 0.05 OD450 | 860 pM | 18900 MFI | – | – | 1090 pM | 39700 MFI | 0.06 OD450 | – | – | 0.06 OD450 | 0.06 OD450 | 0.05 OD450 | 0.06 OD450 | 0.06 OD450
B6 | 0.05 OD450 | 840 pM | 18900 MFI | – | – | 1230 pM | 40300 MFI | 0.05 OD450 | – | – | 0.09 OD450 | 0.05 OD450 | 0.05 OD450 | 0.06 OD450 | 0.06 OD450
